Earlier results in paper PMC11827629.

Test system: thrombin (as in cited literature)
Assay: cited
Details: smFRET: 1x PBS with 2.5 mM PCA, 0.155 U/ul PCD, 1 mM Trolox, 5 nM Cy3-aptamer, 23 +/- 1 C, pH not stated; QCM: PBS, flow 45 +/- 3 ul/min, thrombin 0.06-16.5 nM

Substance | Kd
HD1 (cited) | 7.1 nM
NU172 (cited) | 3.2 nM
RE31 (cited) | 1.4 nM
